Measured values reported in PMC5560758, “SCF^AtPP2-B11 modulates ABA signaling by facilitating SnRK2.3 degradation in Arabidopsis thaliana” (PLoS Genetics, 2017).

Biological target: T1, MBP-SnRK2.3 (Arabidopsis thaliana, UniProt Q39193 1-361)
T1 construct: SnRK2.3 (SnRK2I) of Arabidopsis thaliana; ORF cloned into pMAL-c2x; pMAL-c2x places MBP at the N-terminus (surmised from the vector); also called SnRK2.3-MBP; source: E. coli BL21, purified (Amylose Resin)
T1 sequence (looked up): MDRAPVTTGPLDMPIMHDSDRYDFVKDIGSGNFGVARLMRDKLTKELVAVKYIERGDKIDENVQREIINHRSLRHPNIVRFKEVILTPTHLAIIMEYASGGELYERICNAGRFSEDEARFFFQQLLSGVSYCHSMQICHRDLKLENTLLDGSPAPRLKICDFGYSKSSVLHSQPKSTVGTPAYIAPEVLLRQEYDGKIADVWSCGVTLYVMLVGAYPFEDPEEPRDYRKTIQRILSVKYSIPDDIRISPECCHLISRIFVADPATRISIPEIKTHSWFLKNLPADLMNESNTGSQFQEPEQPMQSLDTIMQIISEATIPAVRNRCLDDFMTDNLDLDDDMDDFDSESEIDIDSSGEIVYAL
Assay: pull-down; AtPP2-B11-GST held on GST beads, incubated with MBP-SnRK2s 2 h at room temperature or 4°C overnight; washed four times; anti-MBP blot
Details: both partners purified

B1: GST-AtPP2-B11 (natural protein, Arabidopsis thaliana, UniProt Q949S5 1-257, looked up)
chain: MNNLPEDCIAKILSLTTPLDVCRLSAVSSIFRSAAGSDDVWNHFLPADFPAGFAAPAGLPTRKQLFFSLVDNPLLINGTLLSFSLERKSGNKCYMMAARALNIVWGHEQRYWHWISLPNTRFGEVAELIMVWWLEITGKINITLLSDDTLYAAYFVFKWNHSPYGFRQPVETSLVLADTESTDNVVQPSMISLMQDSGGEEGQSPVLRRDGWYEVELGQFFKRRGDLGEIEMSLKETKGPYEKKGLIVYGIEIRPVP
notes: AtPP2-B11, F-box protein of Arabidopsis thaliana, 257 amino acids; ORF cloned into pGEX-4T-1; pGEX-4T-1 places GST at the N-terminus (surmised from the vector); also called AtPP2-B11-GST; source: E. coli BL21, purified (Glutathione Agarose)
binding result: binds
